Measured values reported in the supplement of paper PMC7125110.
± gives the standard error. For part of these data: Variants at the floor of the assay were thinned out.

B1: glmS ribozyme (parent)
chain: AUAAAAGCGCCAGAACUACAGAAAUGUAGUUGACGAGGAGGAGGUUUAUCGAAUUUUCGGCGGAUGCCUCCAAA

How the values were obtained:
Conditions in all cases: with glucosamine-6-phosphate
glucosamine-6-phosphate [1] = variants of: B1; assay: kcat; higher = faster cleavage; RNA array
In short: (§1)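 Glucosamine-6-phosphate in HEPES/KCl/Mg(OAc)2 buffer, at 40 μM to 10 mM, was flowed over barcoded ribozyme variants transcribed in situ by E. coli RNA polymerase on sequenced MiSeq chips. Tracking was through a hybridised Cy3 probe at 37 °C. kobs, kcat and KM came from exponential decay fits and weighted Michaelis–Menten fits of normalised per-tile medians.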

glucosamine-6-phosphate [2] = variants of: B1; assay: KM; higher = weaker cofactor use; RNA array
In short: as §1

glucosamine-6-phosphate [3] = variants of: B1; assay: self-cleavage kobs at 160 uM GlcN6P; higher = faster cleavage; RNA array
In short: as §1

glucosamine-6-phosphate [4] = variants of: B1; assay: self-cleavage kobs at 640 uM GlcN6P; higher = faster cleavage; RNA array
In short: as §1

glucosamine-6-phosphate [5] = variants of: B1; assay: self-cleavage kobs at 2500 uM GlcN6P; higher = faster cleavage; RNA array
In short: as §1

glucosamine-6-phosphate [6] = variants of: B1; assay: self-cleavage kobs at 10000 uM GlcN6P; higher = faster cleavage; RNA array
In short: as §1

glucosamine-6-phosphate [7] = variants of: B1; assay: self-cleavage kobs at 40 uM GlcN6P; higher = faster cleavage; RNA array
In short: as §1

Row | Variant | kcat (glucosamine-6-phosphate [1]) [s⁻¹] | KM (glucosamine-6-phosphate [2]) [µM] | self-cleavage kobs at 160 uM GlcN6P (glucosamine-6-phosphate [3]) [s⁻¹] | self-cleavage kobs at 640 uM GlcN6P (glucosamine-6-phosphate [4]) [s⁻¹] | self-cleavage kobs at 2500 uM GlcN6P (glucosamine-6-phosphate [5]) [s⁻¹] | self-cleavage kobs at 10000 uM GlcN6P (glucosamine-6-phosphate [6]) [s⁻¹] | self-cleavage kobs at 40 uM GlcN6P (glucosamine-6-phosphate [7]) [s⁻¹]
1 | U49A C67A | 1.28e-05 ± 1.6e-06 |  |  |  |  |  | 
2 | U30C C71U | 0.000335 ± 3.4e-05 | 1530 ± 340 | 4.2e-05 ± 6.8e-06 | 9.35e-05 ± 1e-05 | 0.000195 ± 1.6e-05 | 0.000307 ± 2.3e-05 | 
3 | A42U A53U | 0.000105 ± 1.1e-05 |  |  |  | 8.5e-05 ± 1.5e-05 | 9.14e-05 ± 8.2e-06 | 
4 | C11A G37U | 1.35e-05 ± 3.5e-06 |  | < 1e-05 |  |  |  | 
5 | A12C U47G | 0.00307 ± 0.00048 | 1400 ± 310 | 0.000267 ± 4.4e-05 | 0.00106 ± 0.00014 | 0.00247 ± 0.00041 | 0.00245 ± 0.00036 | 9.09e-05 ± 1.3e-05
6 | A33U C70U | 0.000127 ± 1.1e-05 | 2760 ± 730 |  | 3.24e-05 ± 9.8e-06 | 5.5e-05 ± 8.7e-06 | 0.0001 ± 6.7e-06 | 
7 | A14G C67G | 0.00362 ± 0.00046 | 1530 ± 280 | 0.000388 ± 6e-05 | 0.00104 ± 0.00011 | 0.00164 ± 0.00033 | 0.00339 ± 0.0003 | 9.34e-05 ± 8.5e-06
8 | U30G G32A U49G | 6.41e-05 ± 1.8e-05 |  |  |  | 6.89e-05 ± 2.1e-05 | 5.26e-05 ± 1.5e-05 | 
9 | U56G G59C | < 1e-05 |  | < 1e-05 | < 1e-05 |  |  | < 1e-05
10 | C10A G51U G63C | 1.02e-05 ± 4.6e-07 | 731 ± 360 |  |  | < 1e-05 |  | 
11 | A48G U54G | 0.000141 ± 9.6e-06 | 761 ± 180 |  | 6.14e-05 ± 1.1e-05 | 0.000134 ± 2.5e-05 | 0.000127 ± 1.2e-05 | 
12 | G29A A33C | 5.32e-05 ± 1.2e-05 |  |  |  | 5.47e-05 ± 1.8e-05 | 4.65e-05 ± 1.4e-05 | < 1e-05
13 | U46G A48G | 7.99e-05 ± 1e-06 | 1250 ± 69 |  |  | 5.4e-05 ± 1.2e-05 | 7.08e-05 ± 1e-05 | < 1e-05
14 | U46G A48U | 0.00014 ± 2.4e-05 |  |  | 3.53e-05 ± 1.4e-05 | 0.000128 ± 2.5e-05 | 0.000117 ± 1.6e-05 | 
15 | C11U C68A C71G | 5.97e-05 ± 2.3e-05 |  |  | 0.000101 ± 2.3e-05 |  |  | 
16 | U56A U69A | 9.71e-05 ± 1.6e-05 |  | 5e-05 ± 1.3e-05 | 8.46e-05 ± 1.2e-05 | 0.000155 ± 2.3e-05 | 8.66e-05 ± 1.1e-05 | 4e-05 ± 1.1e-05
17 | U54A U57C | 0.000159 ± 5.5e-06 | 2020 ± 160 |  | 3.98e-05 ± 1e-05 | 8.52e-05 ± 1.3e-05 | 0.000134 ± 2.1e-05 | 
